T1: OX40 on HeLa cells (HeLa-OX40) (Homo sapiens (Human), UniProt P43489 29-277)
T1 sequence: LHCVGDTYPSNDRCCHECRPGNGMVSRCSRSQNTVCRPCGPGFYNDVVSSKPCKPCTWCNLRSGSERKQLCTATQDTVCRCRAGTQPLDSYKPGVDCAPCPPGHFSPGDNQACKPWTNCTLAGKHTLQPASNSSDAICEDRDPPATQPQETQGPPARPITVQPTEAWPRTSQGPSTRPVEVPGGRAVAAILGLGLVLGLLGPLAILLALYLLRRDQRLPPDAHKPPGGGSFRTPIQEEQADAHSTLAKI

T2: FcRn-His (Example 11) (Mus musculus (Mouse), UniProt Q61559 22-297; P01887 21-119)
T2 construct: copies: 1 + 1
T2 sequence (alpha): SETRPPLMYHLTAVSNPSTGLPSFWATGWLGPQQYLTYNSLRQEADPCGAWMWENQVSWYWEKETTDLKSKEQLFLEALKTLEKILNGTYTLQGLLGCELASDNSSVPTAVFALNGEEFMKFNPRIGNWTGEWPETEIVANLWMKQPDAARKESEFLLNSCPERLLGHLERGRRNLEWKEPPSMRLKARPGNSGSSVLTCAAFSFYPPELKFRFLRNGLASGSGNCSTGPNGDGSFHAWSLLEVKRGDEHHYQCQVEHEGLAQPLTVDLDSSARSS
T2 sequence (beta): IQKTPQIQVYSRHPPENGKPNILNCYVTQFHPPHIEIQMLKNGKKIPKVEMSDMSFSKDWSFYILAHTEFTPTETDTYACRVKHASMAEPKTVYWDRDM

B1: recombinant murine CD40 protein (receptor, UniProt P27512 24-193, looked up)
chain: VTCSDKQYLHDGQCCDLCQPGSRLTSHCTALEKTQCHPCDSGEFSAQWNREIRCHQHRHCEPNQGLRVKKEGTAESDTVCTCKEGQHCTSKDCEACAQHTPCIPGFGVMEMATETTDTVCHPCPVGFFSNQSSLFEKCYPWTSCEDKNLEVLQKGTSQTNVICGLKSRMR
notes: also called mCD40
B2: OX40-His (Example 11) (receptor, not shown: small tags and cut ends)
chain: VTARRLNCVKHTYPSGHKCCRECQPGHGMVSRCDHTRDTLCHPCETGFYNEAVNYDTCKQCTQCNHRSGSELKQNCTPTQDTVCRCRPGTQPRQDSGYKLGVDCVPCPPGHFSPGNNQACKPWTNCTLSGKQTRHPASDSLDAVCEDRSLLATLLWETQRPTFRPTTVQSTTVWPRTSELPSPPTLVTPEGP
B3: murine CD172a(SIRPα)-Fc-CD40L chimeric protein (Fc fusion, UniProt P97797 32-373, looked up)
chain: KELKVTQPEKSVSVAAGDSTVLNCTLTSLLPVGPIRWYRGVGPSRLLIYSFAGEYVPRIRNVSDTTKRNNMDFSIRISNVTPADAGIYYCVKFQKGSSEPDTEIQSGGGTEVYVLAKPSPPEVSGPADRGIPDQKVNFTCKSHGFSPRNITLKWFKDGQELHPLETTVNPSGKNVSYNISSTVRVVLNSMDVNSKVICEVAHITLDRSPLRGIANLSNFIRVSPTVKVTQQSPTSMNQVNLTCRAERFYPEDLQLIWLENGNVSRNDTPKNLTKNTDGTYNYTSLFLVNSSAHREDVVFTCQVKHDQQPAITRNHTVLGFAHSSDQGSMQTFPDNNATHNWNHRRLDKVEEEVNLHEDFVFIKKLKRCNKGEGSLSLLNCEEMRRQFEDLVKDITLNKEEKKENSFEMQRGDEDPQIAAHVVSEANSNAASVLQWAKKGYYTMKSNLVMLENGKQLTVKREGLYYVYTQVTFCSNREPSSQRPFIVGLWLKPSSGSERILLKAANTHSSSQLCEQQSVHLGGVFELQAGASVFVNVTEASQVIHRVGFSSFGLLKL
notes: extracellular domain; also called mCD172a(SIRPα)-Fc-CD40L; not shown: Fc linker of the murine construct is not specified
B4: PD-1_IgG4_OX40L (1) (Fc fusion)
chain: LDSPDRPWNPPTFSPALLVVTEGDNATFTCSFSNTSESFVLNWYRMSPSNQTDKLAAFPEDRSQPGQDCRFRVTQLPNGRDFHMSVVRARRNDSGTYLCGAISLAPKAQIKESLRAELRVTERRAEVPTAHPSPSPRPAGQFQSKYGPPCPSCPAPEFLGGPSVFLFPPKPKDTLMISRTPEVTCVVVDVSQEDPEVQFNWYVDGVEVHNAKTKPREEQFNSTYRVVSVLTVLHQDWLSGKEYKCKVSSKGLPSSIEKTISNATGQPREPQVYTLPPSQEEMTKNQVSLTCLVKGFYPSDIAVEWESNGQPENNYKTTPPVLDSDGSFFLYSRLTVDKSSWQEGNVFSCSVMHEALHNHYTQKSLSLSLGKIEGRMDQVSHRYPRIQSIKVQFTEYKKEKGFILTSQKEDEIMKVQNNSVIINCDGFYLISLKGYFSQEVNISLHYQKDEEPLFQLKKVRSVNSLMVASLTYKDKVYLNVTTDNTSLDDFHVNGGELILIHQNPGEFCVL
B5: murine PD-1-Fc-OX40L chimeric protein (Fc fusion, UniProt Q02242 25-169, looked up)
chain: LEVPNGPWRSLTFYPAWLTVSEGANATFTCSLSNWSEDLMLNWNRLSPSNQTEKQAAFCNGLSQPVQDARFQIIQLPNRHDFHMNILDTRRNDSGIYLCGAISLHPKAKIEESPGAELVVTERILETSTRYPSPSPKPEGRFQGMSSSPAKDPPIQRLRGAVTRCEDGQLFISSYKNEYQTMEVQNNSVVIKCDGLYIIYLKGSFFQEVKIDLHFREDHNPISIPMLNDGRRIVFTVVASLAFKDKVYLTVNAPDTLCEHLQINDGELIVVQLTPGYCAPEGSYHSTVNQVPL
notes: extracellular domain; also called mPD-1-Fc-OX40L; not shown: Fc linker of the murine construct is not specified

Key:
[1] = target: B3; assay: SPR
[2] = target: B5; assay: SPR, BioRad ProteOn XPR 360, His-tagged target on chip
[3] = target: T3, murine CD40 on CHOK1 cells (murine, UniProt P27512 20-289); assay: flow cytometry on CHOK1/mCD40 cells
T3 construct: whole, on cells; also called mCD40; CHOK1/mCD40
T3 sequence (P27512 20-289): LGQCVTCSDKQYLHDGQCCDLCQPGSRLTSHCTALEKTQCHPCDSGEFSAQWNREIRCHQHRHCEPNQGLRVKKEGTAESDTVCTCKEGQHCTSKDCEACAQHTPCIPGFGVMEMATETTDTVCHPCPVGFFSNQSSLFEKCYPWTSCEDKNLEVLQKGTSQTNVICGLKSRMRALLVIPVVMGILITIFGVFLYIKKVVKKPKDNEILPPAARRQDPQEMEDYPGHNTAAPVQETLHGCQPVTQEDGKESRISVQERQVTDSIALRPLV
Description: Cells were collected, washed, and stained with antibodies for the detection of the chimeric protein binding by flow cytometry.

[4] = target: PD-L1 on CHO cells (CHO-PD-L1) (Homo sapiens (Human), UniProt Q9NZQ7 19-290); assay: FACS on CHO-PD-L1 cells
PD-L1 on CHO cells (CHO-PD-L1), sequence (Q9NZQ7 19-290 limits assumed, form in doubt): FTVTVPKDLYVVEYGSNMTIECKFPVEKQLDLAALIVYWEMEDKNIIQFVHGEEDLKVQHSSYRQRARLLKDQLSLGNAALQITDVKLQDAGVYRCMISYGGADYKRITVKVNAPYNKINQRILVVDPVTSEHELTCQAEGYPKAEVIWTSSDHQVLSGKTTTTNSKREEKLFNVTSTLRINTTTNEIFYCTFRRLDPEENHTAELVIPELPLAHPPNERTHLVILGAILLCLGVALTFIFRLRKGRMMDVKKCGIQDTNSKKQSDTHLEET

[5] = target: T1, OX40 on HeLa cells (HeLa-OX40); assay: FACS on HeLa-OX40 cells
FcRn-His (Example 11) = target: T2, FcRn-His (Example 11); assay: SPR, BioRad ProteOn XPR 360, His-tagged target on chip

Binder: B1
Kd [1]: 0.756 nM

Binder: B2
Kd [2]: 9.62 nM

Binder: B3
EC50 [3]: 20.2 nM

Binder: B4
EC50 [4]: 27 nM
EC50 [5]: 6 nM

Binder: B5
Kd (FcRn-His (Example 11)): 55.6 nM
koff (FcRn-His (Example 11)): 0.00262 s⁻¹
kon (FcRn-His (Example 11)): 47200 M⁻¹ s⁻¹

Reference: patent publication US20200222503A1 (published 2020)
